Laboratory results taken from patent US20170121382A1 (published 2017).
Read-outs that look alike come from different tables or passages of the source. One block for each binder: values may come before it.

What was measured:
Test in all cases: SPR
human recombinant DMP1 [1] = molecular target: T1, human recombinant DMP1 (human, UniProt Q13316 17-513)
T1 chain: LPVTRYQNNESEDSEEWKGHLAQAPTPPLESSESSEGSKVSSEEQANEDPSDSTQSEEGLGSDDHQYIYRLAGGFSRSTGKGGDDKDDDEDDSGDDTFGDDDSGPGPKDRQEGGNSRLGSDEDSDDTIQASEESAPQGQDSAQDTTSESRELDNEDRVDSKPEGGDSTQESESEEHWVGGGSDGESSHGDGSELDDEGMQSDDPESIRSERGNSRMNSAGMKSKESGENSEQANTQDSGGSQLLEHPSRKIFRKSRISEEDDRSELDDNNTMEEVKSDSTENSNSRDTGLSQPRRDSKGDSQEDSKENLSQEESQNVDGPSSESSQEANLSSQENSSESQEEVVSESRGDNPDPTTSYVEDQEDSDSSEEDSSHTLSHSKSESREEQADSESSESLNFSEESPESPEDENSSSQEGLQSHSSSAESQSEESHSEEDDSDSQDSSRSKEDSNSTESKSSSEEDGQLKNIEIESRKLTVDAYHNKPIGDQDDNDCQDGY

human recombinant DMP1 [2] = molecular target: T1, human recombinant DMP1
ASARM peptide = molecular target: ASARM peptide

Kd (human recombinant DMP1 [1]): 248 nM
Kd (human recombinant DMP1 [2]): 248 nM
B1: soluble human recombinant PHEX (enzyme)
chain: SLQAKQEYCLKPECIEAAAAILSKVNLSVDPCDNFFRFACDGWISNNPIPEDMPSYGVYPWLRHNVDLKLKELLEKSISRRRDTEAIQKAKILYSSCMNEKAIEKADAKPLLHILRHSPFRWPVLESNIGPEGVWSERKFSLLQTLATFRGQYSNSVFIRLYVSPDDKASNEHILKLDQATLSLAVREDYLDNSTEAKSYRDALYKFMVDTAVLLGANSSRAEHDMKSVLRLEIKIAEIMIPHENRTSEAMYNKMNISELSAMIPQFDWLGYIKKVIDTRLYPHLKDISPSENVVVRVPQYFKDLFRILGSERKKTIANYLVWRMVYSRIPNLSRRFQYRWLEFSRVIQGTTTLLPQWDKCVNFIESALPYVVGKMFVDVYFQEDKKEMMEELVEGVRWAFIDMLEKENEWMDAGTKRKAKEKARAVLAKVGYPEFIMNDTHVNEDLKAIKFSEADYFGNVLQTRKYLAQSDFFWLRKAVPKTEWFTNPTTVNAFYSASTNQIRFPAGELQKPFFWGTEYPRSLSYGAIGVIVGHEFTHGFDNNGRKYDKNGNLDPWWSTESEEKFKEKTKCMINQYSNYYWKKAGLNVKGKRTLGENIADNGGLREAFRAYRKWINDRRQGLEEPLLPGITFTNNQLFFLSYAHVRCNSYRPEAAREQVQIGAHSPPQFRVNGAISNFEEFQKAFNCPPNSTMNRGMDSCRLW

Kd (ASARM peptide): 176 nM
B2: PHEX (enzyme)
chain: B1 chain
